Assay results from the supplement of paper PMC9112550, “Optimization of the antimicrobial peptide Bac7 by deep mutational scanning” (BMC Biology, 2022).

System: Escherichia coli TOP10
Test: shrunken log2 fold change of peptide-encoding DNA abundance (4.5 h post-induction vs induction); higher = less antimicrobial activity (less host growth inhibition)
Details: time post-induction: 4.5 h; library: site-saturation at positions 5, 18, 19, 20
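Further: peptides expressed intracellularly from a pBAD plasmid library in pooled LB shake-flask culture, induced with 0.3% L-arabinose, DNA abundance read by NGS, three biological replicates, DESeq2 with apeglm shrinkage.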

| Sequence | shrunken log2 fold change |
| --- | --- |
| RRIRPRPPRLPRPRPRPMITPRP | -0.407 |
| RRIRMRPPRLPRPRPRPMLPPRP | 0.301 |
| RRIRRRPPRLPRPRPRPFAKPRP | 0.219 |
| RRIRFRPPRLPRPRPRPAWGPRP | 0.144 |
| RRIRQRPPRLPRPRPRPSMNPRP | -0.568 |
| RRIRGRPPRLPRPRPRPTLSPRP | 0.313 |
| RRIRWRPPRLPRPRPRPPWHPRP | 0.134 |
| RRIRYRPPRLPRPRPRPWDQPRP | 0.0123 |
| RRIRIRPPRLPRPRPRPWYIPRP | -0.0639 |
| RRIRLRPPRLPRPRPRPFTRPRP | -0.0482 |
| RRIRRRPPRLPRPRPRPNRCPRP | 0.118 |
| RRIRARPPRLPRPRPRPPWQPRP | 0.675 |
| RRIRIRPPRLPRPRPRPERSPRP | -0.164 |
| RRIRDRPPRLPRPRPRPSLWPRP | 1.09 |
| RRIRSRPPRLPRPRPRPKTNPRP | 0.00294 |
| RRIRHRPPRLPRPRPRPHFYPRP | -0.139 |
| RRIRGRPPRLPRPRPRPNKSPRP | 0.96 |
| RRIRYRPPRLPRPRPRPWSVPRP | -0.554 |
| RRIRPRPPRLPRPRPRPDGLPRP | -0.117 |
| RRIRQRPPRLPRPRPRPRMVPRP | 0.166 |
| RRIRRRPPRLPRPRPRPELHPRP | 0.793 |
| RRIRTRPPRLPRPRPRPQDRPRP | -0.0332 |
| RRIRTRPPRLPRPRPRPHKKPRP | 0.0809 |
| RRIRTRPPRLPRPRPRPIGSPRP | 0.0344 |
| RRIRWRPPRLPRPRPRPADNPRP | 0.212 |

| Sequence | shrunken log2 fold change |
| --- | --- |
| RRIRKRPPRLPRPRPRPRPWPRP | 0.947 |
| RRIRERPPRLPRPRPRPNDMPRP | -0.0595 |
| RRIRNRPPRLPRPRPRPTMLPRP | -0.241 |
| RRIRSRPPRLPRPRPRPQSSPRP | -0.192 |
| RRIRIRPPRLPRPRPRPHSQPRP | -0.824 |
| RRIRSRPPRLPRPRPRPCQLPRP | -0.163 |
| RRIRVRPPRLPRPRPRPSFHPRP | -0.439 |
| RRIRPRPPRLPRPRPRPFRNPRP | -0.0931 |
| RRIRCRPPRLPRPRPRPVPLPRP | 0.00193 |
| RRIRCRPPRLPRPRPRPCFKPRP | -0.603 |
| RRIRGRPPRLPRPRPRPVFPPRP | 0.36 |
| RRIRIRPPRLPRPRPRPMHAPRP | 0.325 |
| RRIRHRPPRLPRPRPRPPVRPRP | 0.16 |
| RRIRPRPPRLPRPRPRPPLIPRP | -0.338 |
| RRIRPRPPRLPRPRPRPSWDPRP | -0.0474 |
| RRIRTRPPRLPRPRPRPECMPRP | 0.378 |
| RRIRARPPRLPRPRPRPAFPPRP | 0.532 |
| RRIRERPPRLPRPRPRPCIPPRP | -0.109 |
| RRIRNRPPRLPRPRPRPFCGPRP | -0.108 |
| RRIRKRPPRLPRPRPRPDPFPRP | -0.0704 |
| RRIRLRPPRLPRPRPRPWYSPRP | -0.103 |
| RRIRRRPPRLPRPRPRPESMPRP | 0.358 |
| RRIRMRPPRLPRPRPRPYYGPRP | 0.0528 |
| RRIRERPPRLPRPRPRPGQSPRP | 0.0977 |
| RRIRVRPPRLPRPRPRPNSSPRP | -0.0634 |

| Sequence | shrunken log2 fold change |
| --- | --- |
| RRIRGRPPRLPRPRPRPVYTPRP | 0.00198 |
| RRIRMRPPRLPRPRPRPLDDPRP | 3.25 |
| RRIRSRPPRLPRPRPRPEWAPRP | 0.273 |
| RRIRTRPPRLPRPRPRPSPDPRP | -0.331 |
| RRIRQRPPRLPRPRPRPYTVPRP | -0.104 |
| RRIRQRPPRLPRPRPRPMKAPRP | 0.181 |
| RRIRDRPPRLPRPRPRPECYPRP | -0.00335 |
| RRIRWRPPRLPRPRPRPPALPRP | 0.433 |
| RRIRYRPPRLPRPRPRPARRPRP | 0.234 |
| RRIRFRPPRLPRPRPRPFYSPRP | -0.0734 |
| RRIRMRPPRLPRPRPRPEYPPRP | 0.0399 |
| RRIRLRPPRLPRPRPRPLMWPRP | 0.115 |
| RRIRDRPPRLPRPRPRPHWTPRP | -0.179 |
| RRIRCRPPRLPRPRPRPRYAPRP | -0.229 |
| RRIRQRPPRLPRPRPRPRTAPRP | 0.0467 |
| RRIRDRPPRLPRPRPRPLNAPRP | -0.0226 |
| RRIRDRPPRLPRPRPRPQRSPRP | 0.0502 |
| RRIRQRPPRLPRPRPRPIPMPRP | -0.639 |
| RRIRFRPPRLPRPRPRPGPVPRP | 0.266 |
| RRIRMRPPRLPRPRPRPCINPRP | -0.0644 |
| RRIRIRPPRLPRPRPRPEFAPRP | 0.452 |
| RRIRSRPPRLPRPRPRPMHWPRP | -0.159 |
| RRIRNRPPRLPRPRPRPIGPPRP | -0.181 |
| RRIRTRPPRLPRPRPRPKTNPRP | -0.157 |
| RRIRLRPPRLPRPRPRPRQIPRP | 0.211 |

| Sequence | shrunken log2 fold change |
| --- | --- |
| RRIRRRPPRLPRPRPRPVTPPRP | 0.705 |
| RRIRVRPPRLPRPRPRPVVWPRP | 0.385 |
| RRIRVRPPRLPRPRPRPQWYPRP | -0.327 |
| RRIRMRPPRLPRPRPRPTYRPRP | 0.422 |
| RRIRQRPPRLPRPRPRPLMVPRP | -0.13 |
| RRIRKRPPRLPRPRPRPCAMPRP | 0.367 |
| RRIRVRPPRLPRPRPRPIKMPRP | -0.697 |
| RRIRERPPRLPRPRPRPNFCPRP | 0.00589 |
| RRIRQRPPRLPRPRPRPKIRPRP | 0.00599 |
| RRIRIRPPRLPRPRPRPMHNPRP | -0.332 |
| RRIRARPPRLPRPRPRPDYEPRP | 0.00147 |
| RRIRWRPPRLPRPRPRPQVHPRP | 0.0992 |
| RRIRHRPPRLPRPRPRPVAKPRP | -0.17 |
| RRIRCRPPRLPRPRPRPEDMPRP | 0.176 |
| RRIRQRPPRLPRPRPRPCPMPRP | -0.203 |
| RRIRSRPPRLPRPRPRPWPDPRP | -0.14 |
| RRIRARPPRLPRPRPRPYRRPRP | -0.174 |
| RRIRARPPRLPRPRPRPFCMPRP | 0.0299 |
| RRIRPRPPRLPRPRPRPAFAPRP | 0.374 |
| RRIRIRPPRLPRPRPRPHEQPRP | -0.288 |
| RRIRCRPPRLPRPRPRPGTPPRP | 0.0685 |
| RRIRIRPPRLPRPRPRPVGHPRP | -0.0495 |
| RRIRFRPPRLPRPRPRPEKSPRP | -0.101 |
| RRIRVRPPRLPRPRPRPTKRPRP | 0.331 |
| RRIRCRPPRLPRPRPRPRDLPRP | 0.108 |

| Sequence | shrunken log2 fold change |
| --- | --- |
| RRIRWRPPRLPRPRPRPYFIPRP | -0.647 |
| RRIRNRPPRLPRPRPRPLHNPRP | -0.503 |
| RRIRYRPPRLPRPRPRPVIFPRP | -0.331 |
| RRIRERPPRLPRPRPRPRLNPRP | -0.156 |
| RRIRFRPPRLPRPRPRPLNRPRP | -0.196 |
| RRIRVRPPRLPRPRPRPNQKPRP | -0.115 |
| RRIRLRPPRLPRPRPRPQGWPRP | 0.495 |
| RRIRTRPPRLPRPRPRPLDLPRP | 0.0209 |
| RRIRLRPPRLPRPRPRPGMWPRP | 0.164 |
| RRIRVRPPRLPRPRPRPRRMPRP | 0.422 |
| RRIRARPPRLPRPRPRPHTIPRP | -0.734 |
| RRIRGRPPRLPRPRPRPFWFPRP | 0.283 |
| RRIRMRPPRLPRPRPRPQFAPRP | 0.0822 |
| RRIRLRPPRLPRPRPRPRVLPRP | -0.132 |
| RRIRIRPPRLPRPRPRPRYVPRP | -0.45 |
| RRIRSRPPRLPRPRPRPNTQPRP | -0.274 |
| RRIRKRPPRLPRPRPRPFCMPRP | -0.115 |
| RRIRERPPRLPRPRPRPIIIPRP | -0.0562 |
| RRIRARPPRLPRPRPRPDCEPRP | 1 |
| RRIRVRPPRLPRPRPRPPYHPRP | -0.284 |
| RRIRRRPPRLPRPRPRPRTQPRP | 0.19 |
| RRIRHRPPRLPRPRPRPQENPRP | -0.245 |
| RRIRQRPPRLPRPRPRPQQYPRP | -0.0402 |
| RRIRMRPPRLPRPRPRPPCEPRP | 1.11 |
| RRIRQRPPRLPRPRPRPPIQPRP | -0.164 |

| Sequence | shrunken log2 fold change |
| --- | --- |
| RRIRSRPPRLPRPRPRPCNPPRP | -0.212 |
| RRIRPRPPRLPRPRPRPMAEPRP | 0.106 |
| RRIRMRPPRLPRPRPRPFRFPRP | 0.089 |
| RRIRTRPPRLPRPRPRPPAAPRP | 0.353 |
| RRIRQRPPRLPRPRPRPTCLPRP | -0.108 |
| RRIRIRPPRLPRPRPRPKTEPRP | -0.413 |
| RRIRVRPPRLPRPRPRPSLCPRP | -0.233 |
| RRIRIRPPRLPRPRPRPQCPPRP | -0.472 |
| RRIRYRPPRLPRPRPRPFFIPRP | -1.11 |
| RRIRTRPPRLPRPRPRPFFDPRP | -0.429 |
| RRIRSRPPRLPRPRPRPFDEPRP | 0.0719 |
| RRIRFRPPRLPRPRPRPDLSPRP | -0.0807 |
| RRIRSRPPRLPRPRPRPFIKPRP | -0.275 |
| RRIRMRPPRLPRPRPRPEWMPRP | 0.156 |
| RRIRKRPPRLPRPRPRPVSRPRP | 0.652 |
| RRIRVRPPRLPRPRPRPPCAPRP | 0.238 |
| RRIRTRPPRLPRPRPRPALYPRP | 0.0598 |
| RRIRIRPPRLPRPRPRPVLCPRP | -0.0142 |
| RRIRCRPPRLPRPRPRPFDSPRP | -0.00174 |
| RRIRPRPPRLPRPRPRPFNNPRP | -0.836 |
| RRIRPRPPRLPRPRPRPTQKPRP | 0.0334 |
| RRIRNRPPRLPRPRPRPCPDPRP | -0.0721 |
| RRIRPRPPRLPRPRPRPVPAPRP | 0.361 |
| RRIRLRPPRLPRPRPRPGAGPRP | 0.448 |
| RRIRYRPPRLPRPRPRPLTCPRP | -0.566 |
